# Patent publication US8263350B2, “Molecular affinity clamp technology and uses thereof” (The University of Chicago, priority 2009, dated 2012)
# Ends that are not written are not given here.
# Columns and labels:
# ePDZ-b2 = test: SPR binding of the new tag peptide to ePDZ-b2; conditions: FIG. 9, SPR, ePDZ-b2 immobilized
# Experimental: The affinity clamps were immobilized and the target peptides in the form of yeast SUMO fusion protein were used as the analytes. (a) Sensorgrams for the interaction of the wild-type ARVCF peptide and ePDZ-b2. Data with 0, 10, 20, 40, 80 and 160 nM peptide are shown in black, and calculated curves from the global fittings of the 1:1 Langmuir binding model are in orange. The estimated dissociation constant is indicated. The peptide sequence is also shown. (b) Sensorgrams for the interaction of the new tag peptide to ePDZ-b2. Data with 0, 10, 20, 40 and 80 nM target are shown.
# (§1) Affinity Measurements. SPR measurements were performed in 20 mM HEPES/NaOH buffer (pH 7.4), 150 mM NaCl, and 0.005% Tween 20 at 25° C. on a BIAcore 2000 instrument. The affinity clamp or the linker mutant was immobilized on a Ni-NTA chip to the level of approximate 300 RU, and different concentrations of SUMO-peptide fusion protein were injected. The kinetic data were analyzed using the one-to-one binding model in BIAEvaluation (BIAcore). For weak interactions (Kd>5 μM), Kd values were determined from the saturation curve of the maximum RU values.
# ARVCF peptide = target: T1, ARVCF peptide (Homo sapiens, UniProt O00192); test: SPR affinity measurement of affinity clamps with the ARVCF peptide; format: binding; conditions: 25° C.
# T1 construct: His tag (N, cleaved yes); made in house; host or cells: E. coli BL21(DE3)
# Experimental: (§2) Protein Expression and Purification. All proteins used in this study were expressed using derivatives of the pHFT2 expression vector in E. coli BL21(DE3) cells. Protein expression was induced with 500 μM IPTG for three to five hours at 25° C. Proteins were purified with Ni affinity chromatography following standard protocols. When necessary, a second step of purification with Sephacryl S-100 column in PBS (50 mM sodium phosphate containing 150 mM NaCl, pH 7.4) was performed to ensure that proteins were monomeric. For protein crystallization and SPR experiments, the N-terminal His tag was cleaved with TEV protease and the cleaved protein was purified using Ni affinity chromatography.
# (§3) Site-directed mutagenesis. Mutant forms of the SUMO-ARVCF peptide fusion protein and linker mutants of affinity clamps were constructed using Kunkel mutagenesis.
# as §1
# δ-catenin peptide = target: T2, δ-catenin peptide (Homo sapiens, UniProt Q9UQB3); test: SPR affinity measurement of affinity clamps with the δ-catenin peptide; format: binding
# T2 construct: His tag (N, cleaved yes); made in house; host or cells: E. coli BL21(DE3)
# Experimental: as §2, §1
# [1] = tested on: ARVCF peptide (alanine substituted); test: Ala-scanning of the ARVCF peptide with SPR affinity measurements; format: binding; conditions: substitution at each of the four positions −7 to −4 of the ARVCF peptide
# Description: Alanine-scanning mutagenesis analysis. Although the phage-display library approach is powerful in determining general trends in sequence specificity, large-scale sequencing is necessary for quantitatively characterizing protein-interaction energetics (Skelton et al., 2003; Sidhu and Koide, 2007). This requirement is acute particularly when there is a strong amino acid preference and thus recovered clones are dominated by a particular pattern, as in our case above. Accordingly, to complement the library sorting experiments described above, the inventors performed Ala-scanning experiments of the ARVCF peptide coupled with affinity measurements using SPR. Because the goal was to understand the differences in target recognition of the affinity clamps, and because the sequence specificity of the C-terminal four residues is predominantly defined by the specificity of the parent PDZ domain, the inventors analyzed only those positions that differed between the ARVCF and δ-catenin peptides.
# as §3
# Affinity Measurements. […] The kinetic data were analyzed using the one-to-one binding model in BIAEvaluation (BIAcore). […]
Molecule,affinity compared with the original (ARVCF) peptide (ePDZ-b2),dissociation rate compared with the original (ARVCF) peptide (ePDZ-b2),Kd (ARVCF peptide) [µM],discrimination between ARVCF peptide and δ-catenin peptide (δ-catenin peptide),"Kd (δ-catenin peptide; SPR, 25° C.) [µM]",Specificity Index (δ-catenin peptide; ratio of the Kd for δ-catenin to the Kd for ARVCF),decrease in binding (ΔΔG) on alanine substitution [1]
RGSIDTWV-COOH (RGSIDTWV-OH) [used in SPR as yeast SUMO fusion],higher affinity,much slower,,,,,
"Erbin PDZ: wild-type Erbin PDZ domain, the parent capture domain of the affinity clamps (protein) EIRVRVEKDPELGFSISGGVGGRGNPFRPDDDGIFVTRVQPEGPASKLLQPGDKIIQANGYSFINIEHGQAVSLLKTFQNTVELIIVREV",,,2.2,almost equally,6.3,3,only small effects
